Where “and” joins values, the source holds several entries; their conditions need not be identical. Identical values can stand only once.
Key:
[1] = molecular target: T1, human IL-17 receptor (IL-17RA) on transfected cells (human, UniProt Q96F46 33-320); test: cell-based or functional assay
T1 sequence: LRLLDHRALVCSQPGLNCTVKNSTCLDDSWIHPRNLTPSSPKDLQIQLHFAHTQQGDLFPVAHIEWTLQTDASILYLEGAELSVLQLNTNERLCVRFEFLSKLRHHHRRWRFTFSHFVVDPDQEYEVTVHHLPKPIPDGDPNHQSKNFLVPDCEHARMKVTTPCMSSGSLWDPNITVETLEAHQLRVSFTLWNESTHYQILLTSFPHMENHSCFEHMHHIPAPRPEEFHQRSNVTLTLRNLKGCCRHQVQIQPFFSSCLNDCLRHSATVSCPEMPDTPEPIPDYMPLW

[2] = molecular target: T2, human IL-17RC, x1 splice variant, on transfected cells (human, UniProt Q8NAC3 21-791); test: cell-based or functional assay
T2 sequence: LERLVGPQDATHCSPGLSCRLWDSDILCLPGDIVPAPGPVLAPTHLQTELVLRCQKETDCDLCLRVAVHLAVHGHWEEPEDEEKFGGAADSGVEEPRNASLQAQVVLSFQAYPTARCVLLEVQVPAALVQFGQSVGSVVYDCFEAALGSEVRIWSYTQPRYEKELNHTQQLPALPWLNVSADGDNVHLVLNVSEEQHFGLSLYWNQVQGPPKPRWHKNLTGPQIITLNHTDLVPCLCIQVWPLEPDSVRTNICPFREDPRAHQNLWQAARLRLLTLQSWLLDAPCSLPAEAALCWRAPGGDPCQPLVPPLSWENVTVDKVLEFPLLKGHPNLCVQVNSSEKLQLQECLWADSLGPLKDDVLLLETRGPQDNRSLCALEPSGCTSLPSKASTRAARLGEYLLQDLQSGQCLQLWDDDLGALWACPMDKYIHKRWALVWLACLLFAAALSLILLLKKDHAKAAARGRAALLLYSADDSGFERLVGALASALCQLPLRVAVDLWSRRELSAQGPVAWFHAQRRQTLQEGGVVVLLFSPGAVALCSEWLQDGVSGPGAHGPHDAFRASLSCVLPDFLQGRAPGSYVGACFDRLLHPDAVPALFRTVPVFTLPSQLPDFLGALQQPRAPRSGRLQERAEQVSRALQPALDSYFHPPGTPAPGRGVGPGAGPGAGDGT

[3] = molecular target: T2, human IL-17RC, x1 splice variant, on …; test: saturation binding, 125I-cytokine on BHK cells; high affinity site of a two-site fit
Method: (§1) Cold competitors were added in 100 fold molar excess. […] Wells were incubated on ice for 1-hour followed by two washes with PBS (Invitrogen 20012-027) and one wash with a high salt solution (1.5M NaCL, 50 mM HEPES pH 7.4). Wells were extracted with 500 ul of 0.8M NaOH for 30 min. at room temperature and counts per minute were measured in a gamma counter (Packard Cobra II A5005).
Transfected BHK cells were plated into 24-well dishes as in one. […] Separately, 100 fold molar excess of cold ligand was added at each dilution point. Cells were washed, extracted and counted as in one. Specific counts per minute were plotted against concentration of radiolabeled ligand added by subtracting the 100 fold excess counts from the uncompeted counts at each dilution point. These normalized data were plotted to generate saturation binding curves for each combination of radiolabeled ligand and transfected BHK cells.

[4] = molecular target: T2, human IL-17RC, x1 splice variant, on …; test: competition, 100x molar cold ligand vs 125I-IL-17A on BHK hIL-17RC cells
Method: as §1

[5] = molecular target: T2, human IL-17RC, x1 splice variant, on …; test: competition, 100x molar cold ligand vs 125I-IL-17F on BHK hIL-17RC cells
Method: as §1

[6] = molecular target: T2, human IL-17RC, x1 splice variant, on …; test: saturation binding, iodinated cytokine on transfected BHK cells

- EC50, luciferase in nih3t3/kz142.8/IL-17R cells [1]: 12.4 ng/mL
- EC50, luciferase in nih3t3/kz142.8/hcytor14X1 cells [2]: 0.61 ng/mL
- fold more potent EC50 in the recombinant line than in the parental line [2]: 17 fold
- Kd [3]: 0.05 nM and 0.06 nM and 0.08 nM
- fold reduction of 125I-IL-17A binding [4]: ~7 fold
- fold reduction of 125I-IL-17F binding [5]: ~5 fold
- Kd [6]: 1 nM
B1: human IL-17F (ligand)
chain: RKIPKVGHTFFQKPESCPPVPGGSMKLDIGIINENQRVSMSRNIESRSTSPWNYTVTWDPNRYPSEVVQAQCRNLGCINAQGKEDISMNSVPIQQETLVVRRKHQGCSVSFQLEKVLVTVGCTCVTPVIHHVQ
notes: also called hIL-17F; hIL17F

— US20110014656A1 (ZymoGenetics, published 2011)
